Experimental data taken from the supplement of paper PMC9112550, “Optimization of the antimicrobial peptide Bac7 by deep mutational scanning” (BMC Biology, 2022).

tested on: Escherichia coli TOP10; test: shrunken log2 fold change of peptide-encoding DNA abundance (4.5 h post-induction vs induction); higher = less antimicrobial activity (less host growth inhibition); settings: time post-induction: 4.5 h; library: site-saturation at positions 5, 18, 19, 20
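Further: peptides expressed intracellularly from a pBAD plasmid library in pooled LB shake-flask culture, induced with 0.3% L-arabinose, DNA abundance read by NGS, three biological replicates, DESeq2 with apeglm shrinkage.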

In order of rising “shrunken log2 fold change” value:
1. RRIRCRPPRLPRPRPRPCTYPRP  -1.19
2. RRIRARPPRLPRPRPRPYWDPRP  -0.964
3. RRIRCRPPRLPRPRPRPFHEPRP  -0.917
4. RRIRCRPPRLPRPRPRPHIEPRP  -0.856
5. RRIRCRPPRLPRPRPRPCLHPRP  -0.824
6. RRIRCRPPRLPRPRPRPFMKPRP  -0.696
7. RRIRCRPPRLPRPRPRPCMEPRP  -0.681
8. RRIRCRPPRLPRPRPRPCNKPRP  -0.671
9. RRIRCRPPRLPRPRPRPCMPPRP  -0.66
10. RRIRCRPPRLPRPRPRPAILPRP  -0.659
11. RRIRARPPRLPRPRPRPYVTPRP  -0.658
12. RRIRCRPPRLPRPRPRPFLKPRP  -0.639
13. RRIRCRPPRLPRPRPRPGTYPRP  -0.628
14. RRIRARPPRLPRPRPRPYVVPRP  -0.623
15. RRIRCRPPRLPRPRPRPCFTPRP  -0.552
16. RRIRARPPRLPRPRPRPYYLPRP  -0.539
17. RRIRCRPPRLPRPRPRPDNSPRP  -0.53
18. RRIRCRPPRLPRPRPRPFVIPRP  -0.526
19. RRIRCRPPRLPRPRPRPGSYPRP  -0.525
20. RRIRCRPPRLPRPRPRPFVNPRP  -0.521
21. RRIRCRPPRLPRPRPRPHDTPRP  -0.427
22. RRIRCRPPRLPRPRPRPFPDPRP  -0.415
23. RRIRCRPPRLPRPRPRPGKIPRP  -0.399
24. RRIRCRPPRLPRPRPRPCWFPRP  -0.386
25. RRIRCRPPRLPRPRPRPGCIPRP  -0.385
26. RRIRCRPPRLPRPRPRPEPYPRP  -0.364
27. RRIRCRPPRLPRPRPRPFWYPRP  -0.353
28. RRIRCRPPRLPRPRPRPCCLPRP  -0.35
29. RRIRCRPPRLPRPRPRPANYPRP  -0.342
30. RRIRCRPPRLPRPRPRPHKEPRP  -0.334
31. RRIRCRPPRLPRPRPRPCTRPRP  -0.321
32. RRIRCRPPRLPRPRPRPCYDPRP  -0.316
33. RRIRCRPPRLPRPRPRPFPEPRP  -0.312
34. RRIRCRPPRLPRPRPRPAKYPRP  -0.299
35. RRIRCRPPRLPRPRPRPHDSPRP  -0.298
36. RRIRCRPPRLPRPRPRPANHPRP  -0.282
37. RRIRCRPPRLPRPRPRPDQYPRP  -0.277
38. RRIRCRPPRLPRPRPRPHICPRP  -0.272
39. RRIRCRPPRLPRPRPRPFVSPRP  -0.265
40. RRIRCRPPRLPRPRPRPAFSPRP  -0.252
41. RRIRCRPPRLPRPRPRPDYFPRP  -0.248
42. RRIRCRPPRLPRPRPRPAIPPRP  -0.246
43. RRIRCRPPRLPRPRPRPDHHPRP  -0.246
44. RRIRCRPPRLPRPRPRPFSSPRP  -0.24
45. RRIRCRPPRLPRPRPRPAFNPRP  -0.23
46. RRIRCRPPRLPRPRPRPCMIPRP  -0.23
47. RRIRCRPPRLPRPRPRPDYPPRP  -0.221
48. RRIRCRPPRLPRPRPRPFACPRP  -0.22
49. RRIRCRPPRLPRPRPRPGSFPRP  -0.22
50. RRIRCRPPRLPRPRPRPHFGPRP  -0.219
51. RRIRCRPPRLPRPRPRPCQCPRP  -0.208
52. RRIRCRPPRLPRPRPRPEFTPRP  -0.194
53. RRIRCRPPRLPRPRPRPDIDPRP  -0.182
54. RRIRCRPPRLPRPRPRPCPAPRP  -0.178
55. RRIRCRPPRLPRPRPRPCVQPRP  -0.153
56. RRIRCRPPRLPRPRPRPHFEPRP  -0.152
57. RRIRCRPPRLPRPRPRPCELPRP  -0.146
58. RRIRCRPPRLPRPRPRPAMCPRP  -0.144
59. RRIRCRPPRLPRPRPRPDKKPRP  -0.132
60. RRIRCRPPRLPRPRPRPEHPPRP  -0.131
61. RRIRCRPPRLPRPRPRPGFTPRP  -0.131
62. RRIRCRPPRLPRPRPRPFGIPRP  -0.129
63. RRIRCRPPRLPRPRPRPCKRPRP  -0.115
64. RRIRCRPPRLPRPRPRPCMTPRP  -0.114
65. RRIRCRPPRLPRPRPRPAMFPRP  -0.0946
66. RRIRCRPPRLPRPRPRPADQPRP  -0.0916
67. RRIRCRPPRLPRPRPRPFFTPRP  -0.0887
68. RRIRCRPPRLPRPRPRPDILPRP  -0.0877
69. RRIRCRPPRLPRPRPRPGRLPRP  -0.0858
70. RRIRCRPPRLPRPRPRPCHKPRP  -0.0857
71. RRIRCRPPRLPRPRPRPGKKPRP  -0.0838
72. RRIRCRPPRLPRPRPRPCVSPRP  -0.0805
73. RRIRCRPPRLPRPRPRPAIQPRP  -0.0767
74. RRIRCRPPRLPRPRPRPFPAPRP  -0.0653
75. RRIRCRPPRLPRPRPRPDKTPRP  -0.0581
76. RRIRCRPPRLPRPRPRPGLNPRP  -0.0525
77. RRIRCRPPRLPRPRPRPCKAPRP  -0.0437
78. RRIRCRPPRLPRPRPRPCWLPRP  -0.0409
79. RRIRCRPPRLPRPRPRPDGLPRP  -0.0371
80. RRIRCRPPRLPRPRPRPDHLPRP  -0.0314
81. RRIRCRPPRLPRPRPRPCGCPRP  -0.0301
82. RRIRCRPPRLPRPRPRPGNCPRP  -0.0286
83. RRIRCRPPRLPRPRPRPEEIPRP  -0.0231
84. RRIRCRPPRLPRPRPRPHDEPRP  -0.0201
85. RRIRCRPPRLPRPRPRPEFDPRP  -0.0199
86. RRIRCRPPRLPRPRPRPGVKPRP  -0.0157
87. RRIRCRPPRLPRPRPRPCWEPRP  -0.0142
88. RRIRCRPPRLPRPRPRPENGPRP  -0.0135
89. RRIRCRPPRLPRPRPRPAIDPRP  -0.0121
90. RRIRCRPPRLPRPRPRPEQQPRP  -0.0118
91. RRIRCRPPRLPRPRPRPGQLPRP  -0.00796
92. RRIRCRPPRLPRPRPRPDLQPRP  -0.00569
93. RRIRCRPPRLPRPRPRPELDPRP  0.00162
94. RRIRCRPPRLPRPRPRPDPMPRP  0.00263
95. RRIRCRPPRLPRPRPRPFQIPRP  0.00581
96. RRIRCRPPRLPRPRPRPDVTPRP  0.0172
97. RRIRCRPPRLPRPRPRPEEKPRP  0.0239
98. RRIRCRPPRLPRPRPRPAISPRP  0.0324
99. RRIRCRPPRLPRPRPRPDDFPRP  0.0333
100. RRIRCRPPRLPRPRPRPGEPPRP  0.0366
101. RRIRCRPPRLPRPRPRPDQQPRP  0.0369
102. RRIRCRPPRLPRPRPRPACYPRP  0.0371
103. RRIRCRPPRLPRPRPRPGMTPRP  0.0507
104. RRIRCRPPRLPRPRPRPECRPRP  0.0543
105. RRIRCRPPRLPRPRPRPEKFPRP  0.0607
106. RRIRCRPPRLPRPRPRPAYDPRP  0.0664
107. RRIRCRPPRLPRPRPRPDLDPRP  0.0676
108. RRIRCRPPRLPRPRPRPDAMPRP  0.0677
109. RRIRCRPPRLPRPRPRPEALPRP  0.0749
110. RRIRCRPPRLPRPRPRPETKPRP  0.0774
111. RRIRCRPPRLPRPRPRPAEHPRP  0.0782
112. RRIRCRPPRLPRPRPRPFLAPRP  0.0788
113. RRIRCRPPRLPRPRPRPDALPRP  0.0862
114. RRIRCRPPRLPRPRPRPCSSPRP  0.0866
115. RRIRCRPPRLPRPRPRPCVTPRP  0.0974
116. RRIRCRPPRLPRPRPRPHMCPRP  0.099
117. RRIRCRPPRLPRPRPRPHDGPRP  0.0999
118. RRIRCRPPRLPRPRPRPFGAPRP  0.102
119. RRIRCRPPRLPRPRPRPACEPRP  0.112
120. RRIRCRPPRLPRPRPRPDIRPRP  0.121
121. RRIRCRPPRLPRPRPRPAWCPRP  0.128
122. RRIRCRPPRLPRPRPRPAFAPRP  0.134
123. RRIRCRPPRLPRPRPRPHKSPRP  0.139
124. RRIRCRPPRLPRPRPRPEASPRP  0.14
125. RRIRCRPPRLPRPRPRPCDQPRP  0.143
126. RRIRCRPPRLPRPRPRPEWSPRP  0.144
127. RRIRCRPPRLPRPRPRPGSAPRP  0.148
128. RRIRCRPPRLPRPRPRPAVGPRP  0.155
129. RRIRCRPPRLPRPRPRPGDIPRP  0.161
130. RRIRCRPPRLPRPRPRPEKNPRP  0.165
131. RRIRCRPPRLPRPRPRPDQPPRP  0.171
132. RRIRCRPPRLPRPRPRPEPMPRP  0.176
133. RRIRCRPPRLPRPRPRPGEIPRP  0.183
134. RRIRCRPPRLPRPRPRPATNPRP  0.213
135. RRIRCRPPRLPRPRPRPGFWPRP  0.226
136. RRIRCRPPRLPRPRPRPEHVPRP  0.229
137. RRIRCRPPRLPRPRPRPAKWPRP  0.235
138. RRIRCRPPRLPRPRPRPEFGPRP  0.241
139. RRIRCRPPRLPRPRPRPDWRPRP  0.243
140. RRIRCRPPRLPRPRPRPGGHPRP  0.286
141. RRIRCRPPRLPRPRPRPEMHPRP  0.304
142. RRIRCRPPRLPRPRPRPACCPRP  0.306
143. RRIRCRPPRLPRPRPRPERDPRP  0.325
144. RRIRCRPPRLPRPRPRPAADPRP  0.341
145. RRIRCRPPRLPRPRPRPGANPRP  0.385
146. RRIRCRPPRLPRPRPRPGFGPRP  0.399
147. RRIRCRPPRLPRPRPRPAGSPRP  0.432
148. RRIRCRPPRLPRPRPRPAPTPRP  0.591
149. RRIRCRPPRLPRPRPRPAPEPRP  0.766
150. RRIRCRPPRLPRPRPRPAPQPRP  0.829
